Results from patent publication US20170037110A1 (IMMATICS BIOTECHNOLOGIES, published 2017).

Target: T1, HLA-A*02:01 (human)
T1 construct: monomers captured on streptavidin plates; also called MHC class I
Assay: UV peptide exchange ELISA
Excerpt: Candidate peptides for T cell based therapies according to the present invention were further tested for their MHC binding capacity (affinity). The individual peptide-MHC complexes were produced by UV-ligand exchange, where a UV-sensitive peptide is cleaved upon UV-irradiation, and exchanged with the peptide of interest as analyzed. Only peptide candidates that can effectively bind and stabilize the peptide-receptive MHC molecules prevent dissociation of the MHC complexes. To determine the yield of the exchange reaction, an ELISA was performed based on the detection of the light chain (p2m) of stabilized MHC complexes.
96 well MAXISorp plates (NUNC) were coated over night with 2 μg/ml streptavidin in PBS at room temperature, washed 4× and blocked for 1 h at 37° C. in 2% BSA containing blocking buffer. […] Peptide-MHC monomers of the UV-exchange reaction were diluted 100 fold in blocking buffer. Samples were incubated for 1h at 37° C., washed four times, incubated with 2 μg/ml HRP conjugated anti-p2m for 1h at 37° C., washed again and detected with TMB solution that is stopped with […]. Absorption was measured at 450 nm.

Binder	peptide exchange yield [%]
LLQKFVPEI	20 to 50
LLQEGQALEYV	20 to 50
ALAQYLITA	50 to 75
ALLPQPKNLTV	50 to 75
KIAENVEEV	20 to 50
GLTSTNAEV	20 to 50
RQISIRGIVGV	50 to 75
SLWPDPMEV	50 to 75
ALQRKLPYV	50 to 75
KLSDIGITV	50 to 75
YLYSVEIKL	≥ 75
VLYSYTIITV	20 to 50
LLLPLQILL	50 to 75
FLIDDKGYTL	20 to 50
LLLNAVLTV	20 to 50
SLLDEIRAV	50 to 75
LLFGSVQEV	50 to 75
ALLDQQGSRWTL	50 to 75
ALGPEGGRV	20 to 50
ALLENIALYL	50 to 75
NLWEDPYYL	50 to 75
ALTEIAFVV	≥ 75
RLQETLSAA	50 to 75
LLDSASAGLYL	50 to 75

Binder	peptide exchange yield [%]
ALLEGVNTV	50 to 75
ALDEMGDLLQL	50 to 75
KVLNELYTV	50 to 75
LLWAGTAFQV	50 to 75
KTINKVPTV	50 to 75
MLLEAPGIFL	50 to 75
KILDADIQL	≥ 75
KLIESKHEV	20 to 50
FLSSLTETI	50 to 75
GLFADLLPRL	50 to 75
YLFENISQL	50 to 75
SLYPGTETMGL	50 to 75
KLFDVDEDGYI	50 to 75
FLATFPLAAV	≥ 75
YLLPEEYTSTL	≥ 75
RLVDYLEGI	50 to 75
YQQAQVPSV	50 to 75
QLINHLHAV	50 to 75
GLFPVTPEAV	50 to 75
FQIDPHSGLVTV	20 to 50
ALQDVPLSSV	50 to 75
FGLDLVTEL	50 to 75
KIFEMLEGV	50 to 75
FLLDLDPLLL	50 to 75

Binder	peptide exchange yield [%]
ALWDQDNLSV	20 to 50
ALIHPVSTV	20 to 50
NLIENVQRL	20 to 50
KVLEVTEEFGV	50 to 75
NLPEYLPFV	50 to 75
KMLDGASFTL	50 to 75
TLFFQQNAL	20 to 50
QLLDADGFLNV	50 to 75
GAAKDLPGV	20 to 50
YLMDINGKMWL	50 to 75
LLWPGAALL	20 to 50
SALEELVNV	20 to 50
YLMEGSYNKVFL	20 to 50
GLVGNPLPSV	≥ 75
ALPLFVITV	50 to 75
VLQEGKLQKLAQL	50 to 75
ALYEEGLLL	20 to 50
YLMDESLNL	50 to 75
FLFDEEIEQI	50 to 75
YLNHLEPPV	50 to 75
KISPVTFSV	50 to 75
FTLGNVVGMYL	≥ 75
